Target: …
Test: G assay

| Binder | binding result |
| --- | --- |
| GST-PAR3 PDZ domain 3 fusion protein (other, not shown: a dimerising Fc or GST; small tags and cut ends, also called PAR3 d3 (278.1); PAR3 d3) PREFLTFEVPLNDSGSAGLGVSVKGNRSKENHADLGIFVKSIINGGAASKDGRLRVNDQLIAVNGESLLGKTNQDAMETLRRSMSTEGNKRGMIQLIVASRISKCNELKSNSS | binds |
| GST-RIM2 PDZ domain 1 fusion protein (other, not shown: a dimerising Fc or GST; small tags and cut ends, also called RIM-2 d1; RIM2 (177.4)) TLNEEHSHSDKHPVTWQPSKDGDRLIGRILLNKRLKDGSVPRDSGAMLGLKVVGGKMTESGRLCAFITKVKKGSLADTVGHLRPGDEVLEWNGRLLQGATFEEVYNIILESKPEPQVELVVSRPIG | binds |
| GST-ZO-1 PDZ domain 2 fusion protein (other, not shown: a dimerising Fc or GST; small tags and cut ends, also called ZO-1 d2 (241.3); ZO-1 d2) ISSQPAKPTKVTLVKSRKNEEYGLRLASHIFVKEISQDSLAARDGNIQEGDVVLKINGTVTENMSLTDAKTLIERSKGKLKMVVQRDRATLLNSS | binds |

From patent US20050164933A1 (NONO, published 2005)
